The source of these data is US20260139049A1 (PEDIATRIC IMMUNITY AND HEALTHCARE GUANGZHOU BIOTECHNOLOGY, published 2026).

In experiment [1] the target is T1, human CLDN6 (human, UniProt P56747 1-220).
T1 construct: whole, on cells; four-transmembrane protein; also called claudin-6; HEK293T-CLDN6
T1 sequence (looked up): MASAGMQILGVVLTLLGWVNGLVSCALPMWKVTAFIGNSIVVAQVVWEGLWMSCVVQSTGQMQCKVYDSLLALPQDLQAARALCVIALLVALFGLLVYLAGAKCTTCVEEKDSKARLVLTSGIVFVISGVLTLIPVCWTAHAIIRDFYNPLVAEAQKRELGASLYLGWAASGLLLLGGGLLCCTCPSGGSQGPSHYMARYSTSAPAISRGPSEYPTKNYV
The experiment can be described thus: FACS on 293T-CLDN6 cells, 10 µg/mL.

For experiment [2], the target named is T1, human CLDN6. The experiment can be described thus: ratio of FACS Geom.Mean on 293T-CLDN6 over 293T-CLDN9, 10 µg/mL. The method, then: (§1) 50 μL of an antibody to be tested was added to a 96-well plate, then 1× 10⁵ cells were added to each well, and incubation was conducted at 4° C. for 1 h. Cells were washed three times with PBS. […] Finally, cells were washed three times with PBS, and signals were read using FACS. Binding capacities of the antibody to CLDN9, CLDN3, and CLDN4 were analyzed separately based on detection data.

For a further experiment, the target named is T2, human CLDN9 (human, UniProt O95484 1-217).
T2 construct: whole, on cells; also called HEK293T-CLDN9
T2 sequence (looked up): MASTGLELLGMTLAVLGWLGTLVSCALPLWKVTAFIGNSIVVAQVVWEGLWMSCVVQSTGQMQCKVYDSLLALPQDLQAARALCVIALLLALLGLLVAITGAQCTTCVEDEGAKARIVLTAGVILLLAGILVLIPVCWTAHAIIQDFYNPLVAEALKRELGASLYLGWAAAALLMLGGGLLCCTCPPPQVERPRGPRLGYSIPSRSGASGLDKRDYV
Briefly: FACS on 293T-CLDN9 cells, 10 µg/mL. The protocol:
as §1

The target of experiment [3] is T3, monkey CLDN6 (Cyno CLDN6) (monkey (Cyno)).
T3 construct: whole, on cells; also called CHO-K1-Cyno CLDN6
The experiment can be described thus: FACS on CHO-K1-Cyno CLDN6 cells.

Another experiment addresses T4, human CLDN4 (human, UniProt O14493 1-209).
T4 construct: whole, on cells; also called HEK293T-CLDN4
T4 sequence (looked up): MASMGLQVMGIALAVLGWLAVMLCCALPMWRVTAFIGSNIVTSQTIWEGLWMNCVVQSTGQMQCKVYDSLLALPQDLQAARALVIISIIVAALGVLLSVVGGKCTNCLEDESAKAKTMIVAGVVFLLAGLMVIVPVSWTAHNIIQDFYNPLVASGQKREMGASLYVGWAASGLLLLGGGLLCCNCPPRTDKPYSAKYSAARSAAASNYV
The experiment can be described thus: FACS on 293T-CLDN4 cells, 10 µg/mL. The protocol: as §1

In experiment [4] the target is T1, human CLDN6. The experiment can be described thus: FACS on PA-1 tumour cells; target on the cells taken as CLDN6. The protocol:
(§2) The specific binding of a chimeric antibody to a tumor cell was detected by FACS, and an EC50 value was calculated accordingly to evaluate an inhibitory effect of the chimeric antibody on the tumor cell.
(§3) 50 μL of an antibody to be tested was added to a 96-well plate, then 1×10⁵ cells were added to each well, and incubation was conducted at 4° C. for 1 h. Cells were washed three times with PBS. […] Finally, cells were washed three times with PBS, and signals were read using FACS. A binding capacity of the antibody to each tumor cell was analyzed based on detection data.

Experiment [5] has as its target T1, human CLDN6. Briefly: FACS on HEK293T-CLDN6 cells. The method, then: (§4) To detect a binding capacity of a chimeric or humanized antibody to CLDN6, a CLDN6-expressing cell line HEK293T-CLDN6 and a CLDN6-negative control cell line HEK293T were washed three times with PBS. 1×10⁵ test cells and 50 μL of an antibody solution to be tested were added to a 96-well plate, and incubated at 4° C. for 1 h. The cells were then washed three times with PBS. […] Finally, cells were washed three times with PBS, and signals were read using FACS.
(§5) An EC50 value (a concentration of an antibody that binds to half of binding sites at equilibrium) is calculated through nonlinear regression.

The target of another experiment is T5, human CLDN3 (human, UniProt O15551 1-220).
T5 construct: whole, on cells; also called HEK293T-CLDN3
T5 sequence (looked up): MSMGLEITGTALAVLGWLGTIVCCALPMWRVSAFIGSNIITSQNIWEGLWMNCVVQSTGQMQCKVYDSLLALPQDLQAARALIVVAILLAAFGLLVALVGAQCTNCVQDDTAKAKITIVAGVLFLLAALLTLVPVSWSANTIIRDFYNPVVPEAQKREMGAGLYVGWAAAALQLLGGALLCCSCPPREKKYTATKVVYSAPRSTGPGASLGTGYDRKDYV
Briefly: FACS on 293T-CLDN3 cells, 10 µg/mL. The protocol: as §1

The next experiment addresses T6, mouse CLDN6 (mouse, UniProt Q9Z262 1-219).
T6 construct: whole, on cells; also called CHO-K1-Mouse CLDN6
T6 sequence (looked up): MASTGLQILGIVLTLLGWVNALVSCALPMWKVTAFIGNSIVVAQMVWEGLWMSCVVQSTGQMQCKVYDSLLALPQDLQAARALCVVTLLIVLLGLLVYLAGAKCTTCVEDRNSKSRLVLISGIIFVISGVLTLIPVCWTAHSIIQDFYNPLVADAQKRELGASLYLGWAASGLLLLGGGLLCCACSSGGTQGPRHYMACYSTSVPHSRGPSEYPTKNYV
Briefly: FACS on CHO-K1-Mouse CLDN6 cells.

Experiment [6] addresses T1, human CLDN6. The experiment can be described thus: FACS on HepG2 tumour cells; target on the cells taken as CLDN6. The protocol:
as §2, §3

For experiment [7], the target named is T1, human CLDN6. Briefly: ratio of FACS signals on CLDN6 cells over CLDN9 cells. The protocol:
as §1

Experiment [8] addresses T1, human CLDN6. Briefly: cell-based or functional assay.
Experiment [9] has as its target T1, human CLDN6. Briefly: FACS on PA-1 tumour cells; target on the cells taken as CLDN6. The protocol: as §3
The source holds these as a separate data set.

The target of experiment [10] is T1, human CLDN6. The experiment can be described thus: cell-based or functional assay. This is another data set of the same source.
Experiment [11] concerns the target T1, human CLDN6. Briefly: FACS on HepG2 tumour cells; target on the cells taken as CLDN6. The protocol: as §3
This is another data set of the same source.

The target of experiment [12] is T1, human CLDN6. Briefly: FACS on HEK293T-CLDN6 cells. The method, then: as §4, §5
This is another data set of the same source.

For experiment [13], the target named is T1, human CLDN6. Briefly: binding to CLDN6-expressing cells; method not given.

B1: 15H2D4 (antibody, human IgG1, kappa, V domains shown)
VH: QAYLQQSGAELVRSGASVKMSCKASGYTFTSYNIHWVKQTPGQGLEWIGYIYPGNGGTKYNERFKGKATLTADASSSTAYMQISSLTSEDSAVYFCARWRYYDRPTHYAMDYWGQGTSVTVSS
VL: DIVVTQSPASLAVSLGQRATISCRASKSVSTSGFSYLHWFQQKPGQPPKLLIYLASNLESGVPARFSGSGSGTDFTLNIHPVEEEDVAVYYCQHSREFPFTFGSGTKLEIKR
notes: chimeric: murine variable regions on human IgG1 constant regions
A word on the EC50: it is the concentration that produces a half-maximal response. As for B1, the Geom.Mean with human CLDN6 [1] came to 40800; with human CLDN9, 88.4; with human CLDN4, 5280; in the experiment with human CLDN3, 139. Besides, the CLDN6/CLDN9 ratio with human CLDN6 [2] is 462. The concentration giving a half-maximal response (EC50) was found to be 0.351 µg/mL in experiment [3]; 0.137 µg/mL in the experiment with human CLDN6 [4]; 0.274 µg/mL with human CLDN6 [5]; 0.117 µg/mL in the experiment with mouse CLDN6; 0.481 µg/mL with human CLDN6 [6].

B2: 58G3C7 (antibody, human IgG1, kappa, V domains shown)
VH: EVQLVESGGGLVKPGGSLKLSCAASGFTFSNYAMSWVRQTPEKRLEWVATISDGGSYTSYPDNIKGRFTISRDNAKNNLYLQVTHLKSEDTAMYYCARDAILITTAGFAYWGQGTLLTVSA
VL: DIQMTQSSSSFSVSLGDRVTITCKASEDIYNRLAWYQQKPGNAPRLLISATTSLETGVPSRFSGSGSGKDYTLSITSLQTEDVATYYCQQYWSFPRTFGGGTKLEVKR
notes: as for B1
On to B2, for which the Geom.Mean with human CLDN6 [1] was 33800; with human CLDN9, 731; with human CLDN4 it was 8440. Also, the CLDN6/CLDN9 ratio in the experiment with human CLDN6 [2] stood at 46. Also, the results for the EC50 (in [3]; in the experiment with human CLDN6 [4]; with human CLDN6 [5]) were 0.16 µg/mL, 0.232 µg/mL and 0.135 µg/mL, respectively. Moreover, the CLDN6/CLDN9 signal ratio in the experiment with human CLDN6 [7] was about 50 fold.

B3: 51C10H4 (antibody, human IgG1, kappa, V domains shown)
VH: EVQLQQSGPELVKPGASVKMSCKASGYTFTDYNMHWVKKSHGKSLEWIGYVNPNNGATSYNQKFKGKATLTVNKSSSTAYMELRSLTSEDSAVYNCARWDGYVYYYGLDYWGQGTSVTVSS
VL: DIQMTQSSSYLSVSLGGRVTITCKASDHINNWLAWYQQKPGNAPRLLISGATSLETGVPSRFSGSGSGKDYTLSITSLQTEDVATYYCQQYWSTPYTFGGGTKLEIKR
notes: chimeric IgG1
B3: the Geom.Mean with human CLDN6 [1] came to 44900; with human CLDN9 it was 248; in the experiment with human CLDN4, 210; in the experiment with human CLDN3, 103. For the same molecule, the CLDN6/CLDN9 ratio in the experiment with human CLDN6 [2] came out at 181. In the experiment with human CLDN6 [8], the “ADCC dose-response fit: EC50” value amounted to 0.0483 µg/mL. Also, in the experiment with human CLDN6 [8], the “ADCC dose-response fit: LogEC50” value was -1.32. Also, the EC50 in [3] was 0.722 µg/mL; with human CLDN6 [9], 0.34 µg/mL; in the experiment with human CLDN6 [4] it was 0.538 µg/mL; with human CLDN6 [5], 0.354 µg/mL; in the experiment with human CLDN6 [11] it was 0.49 µg/mL; in the experiment with mouse CLDN6, 0.935 µg/mL. Also, the EC50 was found to be 0.294 µg/mL with human CLDN6 [6] and 0.235 µg/mL with human CLDN6 [12]. The “CDC dose-response fit: EC50” value with human CLDN6 [10] turned out to be 0.178 µg/mL. For the same molecule, the “CDC dose-response fit: LogEC50” value in the experiment with human CLDN6 [10] was -0.75. The CLDN6/CLDN9 signal ratio in the experiment with human CLDN6 [7] was about 200 fold.

B4: 47D5D6 (antibody, human IgG1, kappa, V domains shown)
VH: EVQLVESGGDLVKPGGSLKLSCAASGFTFSSYGMSWVRQTPDKRLEWVATISSGGSYTYYPDSVKGRFTISRDNAKNTLYLQMSSLKSEDTAMYYCARPHYVSSYAMDYWGQGTSVTVSS
VL: DIQMTQSSSSFSVSLGDRVTITCKASEDIYNRLAWYQQKPGNAPRLLISGATSLETGVPSRFSGSGSGKDYTLSITSLQTEDVATYYCQQYWSTPPTFGGGTKLEIKR
notes: as for B1
In the case of B4, the Geom.Mean came out at 33000 with human CLDN6 [1], 428 in the experiment with human CLDN9, 5620 with human CLDN4 and 151 with human CLDN3. For the same molecule, the CLDN6/CLDN9 ratio in the experiment with human CLDN6 [2] was 77. The values for the EC50 (in [3]; with human CLDN6 [5]; with mouse CLDN6) were 1.94 µg/mL, 1.04 µg/mL and 2.09 µg/mL, respectively. In addition, the CLDN6/CLDN9 signal ratio with human CLDN6 [7] is about 50 fold.

B5: 51C10-M4 (antibody, human IgG1, kappa, V domains shown)
VH: EVQLQQSGPELVKPGASVKMSCKASGYTFTDYNMHWVKKSHGKSLEWIGYVNPNNGATSYNQKFKGKATLTVNKSSSTAYMELRSLTSEDSAVYNCARWEGYVYYYGLDYWGQGTSVTVSS
VL: DIQMTQSSSYLSVSLGGRVTITCKASDHINNWLAWYQQKPGNAPRLLISGATSLETGVPSRFSGSGSGKDYTLSITSLQTEDVATYYCQQYWSTPYTFGGGTKLEIKR
notes: 51C10H4 with D of DG in heavy-chain CDR3 changed to E; also called improved antibody 51C10-M4
For the molecule B5, the binding result with human CLDN6 [13] was “binds”.

B6: 51C10-M3 (antibody, human IgG1, kappa, V domains shown)
VH: EVQLQQSGPELVKPGASVKMSCKASGYTFTDYNMHWVKKSHGKSLEWIGYVNPNNGATSYNQKFKGKATLTVNKSSSTAYMELRSLTSEDSAVYNCARWDAYVYYYGLDYWGQGTSVTVSS
VL: DIQMTQSSSYLSVSLGGRVTITCKASDHINNWLAWYQQKPGNAPRLLISGATSLETGVPSRFSGSGSGKDYTLSITSLQTEDVATYYCQQYWSTPYTFGGGTKLEIKR
notes: 51C10H4 with G of DG in heavy-chain CDR3 changed to A; also called improved antibody 51C10-M3
For the molecule B6, the binding result in the experiment with human CLDN6 [13] is “binds”.

B7: 51C10-M2 (antibody, human IgG1, kappa, V domains shown)
VH: EVQLQQSGPELVKPGASVKMSCKASGYTFTDYNMHWVKKSHGKSLEWIGYVNPNQGATSYNQKFKGKATLTVNKSSSTAYMELRSLTSEDSAVYNCARWDGYVYYYGLDYWGQGTSVTVSS
VL: DIQMTQSSSYLSVSLGGRVTITCKASDHINNWLAWYQQKPGNAPRLLISGATSLETGVPSRFSGSGSGKDYTLSITSLQTEDVATYYCQQYWSTPYTFGGGTKLEIKR
notes: 51C10H4 with N of NG in heavy-chain CDR2 changed to Q; also called improved antibody 51C10-M2
In the case of B7, in the experiment with human CLDN6 [13], the binding result was “binds”.
